From patent publication US20260274955A1 (JANUX THERAPEUTICS, published 2026)
No end group written: not given here.

Key:
[1] = biological target: T1, anti-CD28 Fab (SEQ ID NOs: 202, 203); assay: phage binding ELISA on captured biotinylated Fab;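 note: clonal phage supernatants added to wells preincubated with CD28 antigen or blocking buffer only, bound phage detected by ELISA with horseradish-conjugated anti-M13 antibody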
T1 construct: biotinylated and captured on neutravidin coated plates in the phage ELISA

[2] = biological target: T1, anti-CD28 Fab (SEQ ID NOs: 202, 203); assay: phage binding ELISA on captured Fab, competitor CD28 antigen
[3] = biological target: anti-CD28 Fab (SEQ ID NOs: 202, 203); assay: phage binding ELISA; captured anti-CD28 Fab pre-incubated with CD28 antigen as competitor, anti-M13-HRP detection
[4] = biological target: anti-CD28 Fab (SEQ ID NOs: 202, 203); assay: phage binding ELISA; biotinylated anti-CD28 Fab captured on neutravidin plate, clonal phage supernatant, anti-M13-HRP detection;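 note: before crude clonal phage supernatants were added, wells were preincubated with CD28 antigen in blocking buffer or with blocking buffer only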
[5] = biological target: T2, anti-CD28 Fab (SEQ ID NOs: 202, 203); assay: binding ELISA, peptide captured, anti-CD28 Fab titrated
T2 construct: biotinylated when captured in the phage ELISAs

Ab-1 [6] = biological target: T3, Ab-1; assay: BLI (Octet), 200 nM peptide, 100 nM Ab-1;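 note: association and dissociation phases tracked in real time, with kinetics fitted to a 1:1 interaction model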
T3 construct: also called anti-CD28 scFv harbored in Ab-1

Ab-1 [7] = biological target: T3, Ab-1; assay: binding ELISA, peptide captured, Ab-1 titrated
Ab-1 [8] = biological target: T3, Ab-1; assay: BLI (Octet), peptide on sensor, Ab-1 titrated, 1:1 model
Ab-1 [9] = biological target: T3, Ab-1; assay: competition ELISA, peptide titrated vs 1 nM Ab-1 binding plate-bound CD28

Binder	Anti-CD28 Fab (SEQ ID NOs: 202, 203) signal [1]	Anti-CD28 Fab signal in the presence of CD28 [2]	Anti-CD28 Fab signal in the presence of CD28 [3]	Anti-CD28 Fab (SEQ ID NOs: 202, 203) signal [4]	other results
SCAAGAMYSWPTCL [Phage-935]	2.16	0.08	–	–	–
GCAAGFHYTLSTCL [Phage-1259]	–	–	0.05	0.42	–
LCAAGAHYPWPQCL [Phage-937]	2.15	0.07	–	–	–
TCSAGAHYPWPICL (cysteine pairing not given here; also: biotinylated, site not given here) [Peptide-102]	–	–	–	–	EC50 [5]: 10.6 nM
TCSAGATYGWPACF [Phage-1244]	–	–	0.07	0.76	–
LCAAGATYPWPLCL (cysteine pairing not given here; also: biotinylated, site not given here) [Peptide-96]	–	–	–	–	EC50 [5]: 5.6 nM
LCAAGATYPWPTCL (cysteine pairing not given here; also: biotinylated, site not given here) [Peptide-99]	–	–	–	–	EC50 [5]: 25.8 nM
TCAAGAAYPWPLCF [Phage-930]	2.18	0.11	–	–	–
SCSAGASYAWPMCI [Phage-1255]	–	–	0.06	0.59	–
WCSAVFSYQWPVCL [Phage-1254]	–	–	0.06	0.61	–
NCSAGAQWPWPICL [Phage-936]	2.15	0.08	–	–	–
TCAAGAHYPWPACL (cysteine pairing not given here; also: biotinylated, site not given here) [Peptide-106]	–	–	–	–	EC50 [5]: 4.2 nM
NCSAGATYPWPLCL [Phage-934]	2.17	0.07	–	–	–
MCAAGFHYPWPACL [Phage-927]	2.23	0.1	–	–	–
TCAAGATYLWPTCL (cysteine pairing not given here; also: biotinylated, site not given here) [Peptide-105]	–	–	–	–	EC50 [5]: 20.5 nM
TCAAGANWEWPWCF [Phage-928]	2.22	0.08	–	–	–
GCAAGAEYNWPTCL [Phage-1251]	–	–	0.64	0.69	–
TCSAGATWAWPLCF (cysteine pairing not given here; also: biotinylated, site not given here) [Peptide-104]	–	–	–	–	EC50 [5]: 15.6 nM
TCSAGATYTWSKCF [Phage-939]	2.15	0.06	–	–	–
TCSAGATYTWPWCF [Phage-941]	2.14	0.07	–	–	–
TCSAGASNKLSLCL [Phage-931]	2.18	0.06	–	–	–
TCSAGATYKWPMCF [Phage-1243]	–	–	0.07	0.77	–

Binder	Anti-CD28 Fab (SEQ ID NOs: 202, 203) signal [1]	Anti-CD28 Fab signal in the presence of CD28 [2]	Anti-CD28 Fab signal in the presence of CD28 [3]	Anti-CD28 Fab (SEQ ID NOs: 202, 203) signal [4]	other results
PCSAGATYAWPYCL [Phage-1249]	–	–	0.09	0.71	–
TCSAGAAYSWPACF (cysteine pairing not given here; also: biotinylated, site not given here) [Peptide-98]	–	–	–	–	EC50 [5]: 24.3 nM
ECSAGAMWGWPACF [Phage-1246]	–	–	0.09	0.73	–
SCAAGAGYGWPQCL [Phage-1257]	–	–	0.13	0.55	–
SCGGGFHYSWPLCF [Phage-1258]	–	–	0.15	0.55	–
TCSAGAQWEWPACL [Phage-1253]	–	–	0.08	0.67	–
RDWCPRDLWVHCFA (cysteine pairing not given here; also: biotinylated, site not given here) [Peptide-3]	–	–	–	–	Octet signal (Ab-1 [6]): 1.22; t1/2 (Ab-1 [6]): 4.9 min; EC50 (Ab-1 [7]): 14.6 nM; Kd (Ab-1 [8]): 20.3 nM; t1/2 (Ab-1 [8]): 6.2 min; IC50 (Ab-1 [9]): 170 nM
TCAAGATYDWPSCL [Phage-1247]	–	–	0.08	0.71	–
TCAAGAVWQWPTCF [Phage-1248]	–	–	0.06	0.71	–
LCNAGATYSWPTCL [Phage-940]	2.14	0.06	–	–	–
TCSAGATYEWPRCL (cysteine pairing not given here; also: biotinylated, site not given here) [Peptide-101]	–	–	–	–	EC50 [5]: 12.8 nM
TCAAGAHWPWPTCF [Phage-938]	2.15	0.07	–	–	–
RCSAGFHYPLSLCL [Phage-933]	2.18	0.06	–	–	–
TCAAGATYAWPYCV [Phage-929]	2.21	0.09	–	–	–
DCWWDSPYHWRVCL [Phage-1256]	–	–	0.07	0.57	–
SCSAGAHYPWPQCF (cysteine pairing not given here; also: biotinylated, site not given here) [Peptide-100]	–	–	–	–	EC50 [5]: 19 nM
TCAAGAAYTWPHCF [Phage-1252]	–	–	0.11	0.69	–
SCSAGAAYYWPWCL (cysteine pairing not given here; also: biotinylated, site not given here) [Peptide-103]	–	–	–	–	EC50 [5]: 112 nM
MCSAGANWPWPLCF [Phage-932]	2.18	0.07	–	–	–
ICAAGAGWPWPWCL [Phage-1245]	–	–	0.1	0.75	–
TCAAGAQLEWPWCF [Phage-1250]	–	–	0.07	0.7	–
